These results are taken from patent US20260193293A1 (UNIVERSITY OF COPENHAGEN, published 2026).

Non-standard residues stand in square brackets, D forms with d. 2Nal = N[C@@H](Cc1ccc2ccccc2c1)C(=O)O

In general, Ki refers to a dissociation constant, usually derived from enzyme kinetics or from competition with a known ligand.

Assay [1] addresses T1, Sushi domains (SD1/2) protein of the GABAB1a (GB1a) subunit, recombinant.
T1 construct: domain: Sushi domains (SD1/2); also called SDs; sushi domain 1/2 (SD1/2) protein
Put plainly: FP competition.
Protocol: Fluorescence polarization (FP). FP assay was employed to determine the binding affinity of peptides in flat bottom black 384-well plates (Corning Life Science) using a Safire2 plate reader (Tecan). All experiments were conducted in 1×PBS (pH 7.4) containing 1% bovine serum albumin (BSA) at rt. The fluorescence polarization values were measured using excitation/emission wavelengths of 530/580 nm. […] For saturation assay, the millipolarization values were measured after mixing of probes with 12 serial 1 to 1 diluted concentrations of Sushi domains (SD1/2) protein. All experiments were performed in triplicate and the data were plotted to the one-site binding model using GraphPad Prism 9 to calculate the Kd of probes. […] The experiments were performed at least in triplicate and the data were fitted to the sigmoidal dose response curve using GraphPad Prism 9 to obtain the IC₅₀ of peptides. The Kᵢ values were calculated according to Nikolovska-Coleska et al³¹⁰.

In assay [2] the target is T2, native full-length GB1a subunit from mouse brain membrane fraction (mouse, UniProt Q9WV18 20-960).
T2 construct: Detected by immunoblot after pull-down from brain lysate; also called native GB1a; native SD
As to the kind of experiment: pull-down from mouse brain lysate, immunoblot. Background: In western blotting, separated proteins are transferred to a membrane and probed.
Protocol: Preparation of whole-brain lysates. Dissected adult mouse brains were placed in ice-cold homogenization buffer (320 mM sucrose, 4 mM HEPES, PH 7.5, 1 mM EDTA, 1 mM EGTA, supplemented with complete EDTA-free protease inhibitor mixture (Roche), 1 mL per 100 mg of brain) and homogenized with a glass-Teflon homogenizer (40 passes) on ice. […] The final brain lysates (at 2 mg/mL protein concentration) were directly used for immunoblot analysis (input lanes) or for pull-down experiments.
Pull-down experiments. […] For immunoblotting analysis, proteins were transferred to nitrocellulose membrane (0.2-μm pore size) (iBlot™ 2 Transfer Stacks, nitrocellulose, mini) using iBlot2 (invitrogen) and then probed with the primary antibodies mouse anti-SD clone 43N12 (1:250) or mouse monoclonal to GABAB1 subunit (abcam, 1:500) in combination with secondary peroxidase-coupled sheep anti-mouse IgG antibody (Cytiva, 1:5000).

T2 sequence (Q9WV18 20-960): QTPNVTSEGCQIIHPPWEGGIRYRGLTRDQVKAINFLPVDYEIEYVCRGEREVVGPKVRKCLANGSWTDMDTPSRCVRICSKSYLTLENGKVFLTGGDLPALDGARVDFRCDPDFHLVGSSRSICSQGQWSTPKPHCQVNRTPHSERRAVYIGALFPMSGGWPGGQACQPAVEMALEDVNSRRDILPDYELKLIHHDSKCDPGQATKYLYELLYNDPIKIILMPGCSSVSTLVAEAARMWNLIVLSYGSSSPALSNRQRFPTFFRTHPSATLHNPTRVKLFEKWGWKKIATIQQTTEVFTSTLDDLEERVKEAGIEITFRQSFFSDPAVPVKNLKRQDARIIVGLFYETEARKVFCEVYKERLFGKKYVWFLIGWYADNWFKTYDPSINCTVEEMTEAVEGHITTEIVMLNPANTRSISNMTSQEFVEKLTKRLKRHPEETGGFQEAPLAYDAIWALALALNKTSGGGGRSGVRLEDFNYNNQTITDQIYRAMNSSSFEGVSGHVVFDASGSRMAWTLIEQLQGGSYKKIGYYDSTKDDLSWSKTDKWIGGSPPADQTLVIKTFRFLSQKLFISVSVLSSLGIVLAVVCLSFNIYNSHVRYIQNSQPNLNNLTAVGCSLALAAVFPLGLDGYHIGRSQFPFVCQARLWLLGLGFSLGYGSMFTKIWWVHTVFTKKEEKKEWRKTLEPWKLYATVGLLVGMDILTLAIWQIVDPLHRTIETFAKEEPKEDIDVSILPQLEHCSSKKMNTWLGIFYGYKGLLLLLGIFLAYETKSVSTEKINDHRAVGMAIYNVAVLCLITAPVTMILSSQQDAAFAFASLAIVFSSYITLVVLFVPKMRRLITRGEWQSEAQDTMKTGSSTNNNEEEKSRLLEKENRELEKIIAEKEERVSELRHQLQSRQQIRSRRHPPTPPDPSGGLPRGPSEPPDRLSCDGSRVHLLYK
T1 sequence (Q9Z0U4 29-158): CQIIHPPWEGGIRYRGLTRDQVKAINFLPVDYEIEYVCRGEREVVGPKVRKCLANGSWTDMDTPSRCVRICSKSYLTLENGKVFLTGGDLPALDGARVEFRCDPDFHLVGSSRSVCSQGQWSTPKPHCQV

B1: Scr-20, scrambled version of peptide 20 ((2Nala)EDSDDYDDIDDDW) (peptide)
peptide: Ac-[2Nal]EDSDDYDDIDDDW-NH2
SMILES: CC[C@H](C)[C@H](NC(=O)[C@H](CC(=O)O)NC(=O)[C@H](CC(=O)O)NC(=O)[C@H](Cc1ccc(O)cc1)NC(=O)[C@H](CC(=O)O)NC(=O)[C@H](CC(=O)O)NC(=O)[C@H](CO)NC(=O)[C@H](CC(=O)O)NC(=O)[C@H](CCC(=O)O)NC(=O)[C@H](Cc1ccc2ccccc2c1)NC(C)=O)C(=O)N[C@@H](CC(=O)O)C(=O)N[C@@H](CC(=O)O)C(=O)N[C@@H](CC(=O)O)C(=O)N[C@@H](Cc1c[nH]c2ccccc12)C(N)=O
For B1, in assay [1], the inhibition constant Ki was found to be 31 µM. For the same molecule, the binding result in assay [2] was “no binding”.
